Measurements published in patent US20240425589A1, “CYTOTOXICITY-INDUCING THERAPEUTIC AGENT FOR USE IN TREATMENT OF CANCER” (CHUGAI SEIYAKU KABUSHIKI KAISHA, priority 2021, published 2024).

Key:
[1] = target: T1, recombinant human CD3 (human CD3eg linker) (Homo sapiens, UniProt P07766+P09693); experiment: Biacore T200 SPR affinity of Dual-Fab antibodies to human CD3; format: binding; conditions: 25 degrees C, pH 7.4
T1 construct: made in house; host or cells: FreeStyle293F
Text: The gamma and epsilon subunits of the human CD3 complex (human CD3eg linker) were linked by a 29-mer linker and a Flag-tag was fused to the C-terminal end of the gamma subunit (SEQ ID NO: 169). This construct was expressed transiently using FreeStyle293F cell line (Thermo Fisher). Conditioned media expressing human CD3eg linker was concentrated using a column packed with Q HP resins (GE healthcare) and then applied to FLAG-tag affinity chromatography. Fractions containing human CD3eg linker were collected and subsequently subjected to a Superdex 200 gel filtration column (GE healthcare) equilibrated with 1×D-PBS. Fractions containing human CD3eg linker were then pooled and stored at −80 degrees C.
(§1) Binding affinity of Dual-Fab antibodies (Dual-Ig) to human CD3 were assessed at 25 degrees C. using Biacore T200 instrument (GE Healthcare). Anti-human Fc (GE Healthcare) was immobilized onto all flow cells of a CM4 sensor chip using amine coupling kit (GE Healthcare). Antibodies were captured onto the anti-Fc sensor surfaces, then recombinant human CD3 or CD137 was injected over the flow cell. All antibodies and analytes were prepared in ACES pH 7.4 containing 20 mM ACES, 150 mM NaCl, 0.05% Tween 20, and 0.005% NaN3. Sensor surface was regenerated each cycle with 3M MgCl2. Binding affinity were determined by processing and fitting the data to 1:1 binding model using Biacore T200 Evaluation software, version 2.0 (GE Healthcare). CD137 binding affinity assay was conducted in same condition except assay temperature was set at 37 degrees C.

recombinant human CD137 = target: T2, recombinant human CD137 (Homo sapiens, UniProt Q07011); experiment: Biacore T200 SPR affinity of Dual-Fab antibodies to human CD137; format: binding; conditions: 37 degrees C, pH 7.4
T2 construct: made in house; host or cells: FreeStyle293F
Text: Human CD137 extracellular domain (ECD) (SEQ ID NO: 179) with hexahistidine (His-tag) and biotin acceptor peptide (BAP) on its C-terminus was expressed transiently using FreeStyle293F cell line (Thermo Fisher). Conditioned media expressing human CD137 ECD was applied to a HisTrap HP column (GE healthcare) and eluted with buffer containing imidazole (Nacalai). Fractions containing human CD137 ECD were collected and subsequently subjected to a Superdex 200 gel filtration column (GE healthcare) equilibrated with 1×D-PBS. Fractions containing human CD137 ECD were then pooled and stored at −80 degrees C.
as §1

T1 sequence (P07766+P09693 fused): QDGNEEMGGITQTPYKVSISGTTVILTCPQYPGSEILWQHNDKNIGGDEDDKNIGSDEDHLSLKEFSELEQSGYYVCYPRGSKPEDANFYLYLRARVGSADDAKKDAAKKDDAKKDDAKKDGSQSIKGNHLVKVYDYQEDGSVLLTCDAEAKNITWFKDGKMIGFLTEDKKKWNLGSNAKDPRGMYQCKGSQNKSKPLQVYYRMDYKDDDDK
T2 sequence (Q07011 with tags, fused parts or gaps): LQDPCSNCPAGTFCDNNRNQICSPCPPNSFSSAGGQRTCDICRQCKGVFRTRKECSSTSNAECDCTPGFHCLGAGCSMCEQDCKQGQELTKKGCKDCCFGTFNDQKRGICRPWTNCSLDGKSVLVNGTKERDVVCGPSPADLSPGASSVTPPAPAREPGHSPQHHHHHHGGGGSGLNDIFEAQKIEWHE

B1: H1610L0581: affinity matured Dual-Fab variant, VH SEQ ID NO 94, VL SEQ ID NO 143 (antibody, V domains shown)
VH: QVQLVESGGGLVQPGRSLRLSCAASGFVFSNVWMHWVRQAPGKGLEWVAQIKDKWNAYAAYYAPSVKGRFTISRDDSKNSIYLQMNSLKTEDTAVYYCHYIHYASASTLLPAEGIDAWGQGTTVTVSS
VL: DIVMTQSPLSLPVTPGEPASISCQPSQEVVHMNRNTYLHWYQQKPGQAPRLLIYKVSNRFPGVPDRFSGSGSGTDFTLKISRVEAEDVGVYYCAQGTSHPFTFGQGTKLEIK
[1]
  CD3 Koff: 0.00142 s⁻¹
  CD3 Kon: 68000 M⁻¹ s⁻¹
Recombinant human CD137
  CD137 Koff: 0.0011 s⁻¹
  CD137 Kon: 10700 M⁻¹ s⁻¹

B2: H1610L0939: affinity matured Dual-Fab variant, VH SEQ ID NO 94, VL SEQ ID NO 145 (antibody, V domains shown)
VH: QVQLVESGGGLVQPGRSLRLSCAASGFVFSNVWMHWVRQAPGKGLEWVAQIKDKWNAYAAYYAPSVKGRFTISRDDSKNSIYLQMNSLKTEDTAVYYCHYIHYASASTLLPAEGIDAWGQGTTVTVSS
VL: DIVMTQSPLSLPVTPGEPASISCQPSQEVVHMNRNTYLHWYQQKPGQAPRLLIYKVSNVFPGVPDRFSGSGSGTDFTLKISRVEAEDVGVYYCAQGTHHPFTFGQGTKLEIK
[1]
  CD3 Koff: 0.00253 s⁻¹
  CD3 Kon: 50000 M⁻¹ s⁻¹
Recombinant human CD137
  CD137 Koff: 0.000801 s⁻¹
  CD137 Kon: 13000 M⁻¹ s⁻¹

B3: H1649L0581: affinity matured Dual-Fab variant, VH SEQ ID NO 97, VL SEQ ID NO 143 (antibody, V domains shown)
VH: QVQLVESGGGLVQPGRSLRLSCAASGFVFSNVWFHWVRQAPGKGLEWVAQIKDKYNAYADYYAPSVKERFTISRDDSKNSIYLQMNSLKTEDTAVYYCHYVHYASASTLLPAEGVDAWGQGTTVTVSS
VL: DIVMTQSPLSLPVTPGEPASISCQPSQEVVHMNRNTYLHWYQQKPGQAPRLLIYKVSNRFPGVPDRFSGSGSGTDFTLKISRVEAEDVGVYYCAQGTSHPFTFGQGTKLEIK
[1]
  CD3 Koff: 0.0336 s⁻¹
  CD3 Kon: 75000 M⁻¹ s⁻¹
Recombinant human CD137
  CD137 Koff: 0.000553 s⁻¹
  CD137 Kon: 12900 M⁻¹ s⁻¹

B4: H1647L0581: affinity matured Dual-Fab variant, VH SEQ ID NO 96, VL SEQ ID NO 143 (antibody, V domains shown)
VH: QVQLVESGGGLVQPGRSLRLSCAASGFKFSNTWFHWVRQAPGKGLEWVAQIKDYYNDYAAYYAPSVKGRFTISRDDSKNSIYLQMNSLKTEDTAVYYCHYVHYASASTLLPAEGVDAWGQGTTVTVSS
VL: DIVMTQSPLSLPVTPGEPASISCQPSQEVVHMNRNTYLHWYQQKPGQAPRLLIYKVSNRFPGVPDRFSGSGSGTDFTLKISRVEAEDVGVYYCAQGTSHPFTFGQGTKLEIK
Recombinant human CD137
  CD137 Koff: 0.000647 s⁻¹
  CD137 Kon: 9980 M⁻¹ s⁻¹

B5: H1673L0581: affinity matured Dual-Fab variant, VH SEQ ID NO 100, VL SEQ ID NO 143 (antibody, V domains shown)
VH: QVQLVESGGGLVQPGRSLRLSCAASGFVFSNVWFHWVRQAPGKGLEWVAQIKDKWNAYADYYAPSVKERFTISRDDSKNSIYLQMNSLKTEDTAVYYCHYIHYASASTLLPAEGIDAWGQGTTVTVSS
VL: DIVMTQSPLSLPVTPGEPASISCQPSQEVVHMNRNTYLHWYQQKPGQAPRLLIYKVSNRFPGVPDRFSGSGSGTDFTLKISRVEAEDVGVYYCAQGTSHPFTFGQGTKLEIK
[1]
  CD3 Koff: 0.00106 s⁻¹
  CD3 Kon: 79600 M⁻¹ s⁻¹
Recombinant human CD137
  CD137 Koff: 0.00096 s⁻¹
  CD137 Kon: 11900 M⁻¹ s⁻¹

B6: H1673L0943: affinity matured Dual-Fab variant, VH SEQ ID NO 100, VL SEQ ID NO 146 (antibody, V domains shown)
VH: QVQLVESGGGLVQPGRSLRLSCAASGFVFSNVWFHWVRQAPGKGLEWVAQIKDKWNAYADYYAPSVKERFTISRDDSKNSIYLQMNSLKTEDTAVYYCHYIHYASASTLLPAEGIDAWGQGTTVTVSS
VL: DIVMTQSPLSLPVTPGEPASISCQPSEEVVHMNRNTYLHWYQQKPGQAPRLLIYKVSNLFPGVPDRFSGSGSGTDFTLKISRVEAEDVGVYYCAQGTHHPFTFGQGTKLEIK
[1]
  CD3 Koff: 0.00116 s⁻¹
  CD3 Kon: 55000 M⁻¹ s⁻¹
Recombinant human CD137
  CD137 Koff: 0.000722 s⁻¹
  CD137 Kon: 12200 M⁻¹ s⁻¹

B7: H1652L0943: affinity matured Dual-Fab variant, VH SEQ ID NO 99, VL SEQ ID NO 146 (antibody, V domains shown)
VH: QVQLVESGGGLVQPGRSLRLSCAASGFVFSNVWFHWVRQAPGKGLEWVAQIKDYYNAYADYYAPSVEGRFTISRDDSKNSIYLQMNSLKTEDTAVYYCHYVHYASASTLLPAEGVDAWGQGTTVTVSS
VL: DIVMTQSPLSLPVTPGEPASISCQPSEEVVHMNRNTYLHWYQQKPGQAPRLLIYKVSNLFPGVPDRFSGSGSGTDFTLKISRVEAEDVGVYYCAQGTHHPFTFGQGTKLEIK
[1]
  CD3 Koff: 0.0636 s⁻¹
  CD3 Kon: 62300 M⁻¹ s⁻¹
  Kd: 1020 nM
Recombinant human CD137
  CD137 Koff: 0.00047 s⁻¹
  CD137 Kon: 12900 M⁻¹ s⁻¹

B8: H1649L0943: affinity matured Dual-Fab variant, VH SEQ ID NO 97, VL SEQ ID NO 146 (antibody, V domains shown)
VH: QVQLVESGGGLVQPGRSLRLSCAASGFVFSNVWFHWVRQAPGKGLEWVAQIKDKYNAYADYYAPSVKERFTISRDDSKNSIYLQMNSLKTEDTAVYYCHYVHYASASTLLPAEGVDAWGQGTTVTVSS
VL: DIVMTQSPLSLPVTPGEPASISCQPSEEVVHMNRNTYLHWYQQKPGQAPRLLIYKVSNLFPGVPDRFSGSGSGTDFTLKISRVEAEDVGVYYCAQGTHHPFTFGQGTKLEIK
[1]
  CD3 Koff: 0.0481 s⁻¹
  CD3 Kon: 61000 M⁻¹ s⁻¹
Recombinant human CD137
  CD137 Koff: 0.000468 s⁻¹
  CD137 Kon: 14300 M⁻¹ s⁻¹

B9: H1651L0581: affinity matured Dual-Fab variant, VH SEQ ID NO 98, VL SEQ ID NO 143 (antibody, V domains shown)
VH: QVQLVESGGGLVQPGRSLRLSCAASGFVFSNVWFHWVRQAPGKGLEWVAQIKDKYNAYADYYAPSVEGRFTISRDDSKNSIYLQMNSLKTEDTAVYYCHYVHYASASTLLPAEGVDAWGQGTTVTVSS
VL: DIVMTQSPLSLPVTPGEPASISCQPSQEVVHMNRNTYLHWYQQKPGQAPRLLIYKVSNRFPGVPDRFSGSGSGTDFTLKISRVEAEDVGVYYCAQGTSHPFTFGQGTKLEIK
[1]
  CD3 Koff: 0.0371 s⁻¹
  CD3 Kon: 71800 M⁻¹ s⁻¹
Recombinant human CD137
  CD137 Koff: 0.000603 s⁻¹
  CD137 Kon: 14000 M⁻¹ s⁻¹

B10: H0868L0581: affinity matured Dual-Fab variant, VH SEQ ID NO 91, VL SEQ ID NO 143 (antibody, V domains shown)
VH: QVQLVESGGGLVQPGRSLRLSCAASGFKFSNVWMHWVRQAPGKGLEWVAQIKDKYNAYAAYYAPSVKGRFTISRDDSKNSIYLQMNSLKTEDTAVYYCHYVHYASASTLLPAFGVDAWGQGTTVTVSS
VL: DIVMTQSPLSLPVTPGEPASISCQPSQEVVHMNRNTYLHWYQQKPGQAPRLLIYKVSNRFPGVPDRFSGSGSGTDFTLKISRVEAEDVGVYYCAQGTSHPFTFGQGTKLEIK
Recombinant human CD137
  CD137 Koff: 0.00136 s⁻¹
  CD137 Kon: 12200 M⁻¹ s⁻¹

B11: H1571L0581: affinity matured Dual-Fab variant, VH SEQ ID NO 93, VL SEQ ID NO 143 (antibody, V domains shown)
VH: QVQLVESGGGLVQPGRSLRLSCAASGFKFSNVWFHWVRQAPGKGLEWVAQIKDKYNAYATYYAPSVKGRFTISRDDSKNSIYLQMNSLKTEDTAVYYCHYVHYASASTLLPAFGVDAWGQGTTVTVSS
VL: DIVMTQSPLSLPVTPGEPASISCQPSQEVVHMNRNTYLHWYQQKPGQAPRLLIYKVSNRFPGVPDRFSGSGSGTDFTLKISRVEAEDVGVYYCAQGTSHPFTFGQGTKLEIK
Recombinant human CD137
  CD137 Koff: 0.00105 s⁻¹
  CD137 Kon: 12100 M⁻¹ s⁻¹

B12: H1643L0581: affinity matured Dual-Fab variant, VH SEQ ID NO 95, VL SEQ ID NO 143 (antibody, V domains shown)
VH: QVQLVESGGGLVQPGRSLRLSCAASGFKFSNVWFHWVRQAPGKGLEWVAQIKDYYNAYAAYYAPSVKGRFTISRDDSKNSIYLQMNSLKTEDTAVYYCHYVHYASASTLLPAEGVDAWGQGTTVTVSS
VL: DIVMTQSPLSLPVTPGEPASISCQPSQEVVHMNRNTYLHWYQQKPGQAPRLLIYKVSNRFPGVPDRFSGSGSGTDFTLKISRVEAEDVGVYYCAQGTSHPFTFGQGTKLEIK
[1]
  CD3 Koff: 0.0251 s⁻¹
  CD3 Kon: 94600 M⁻¹ s⁻¹
Recombinant human CD137
  CD137 Koff: 0.000606 s⁻¹
  CD137 Kon: 12300 M⁻¹ s⁻¹
